In patent US12145987B2, “Method for depleting cytotoxic T cells using an anti-LAG-3 antibody composition” (Daiichi Sankyo Company, Limited, priority 2017, dated 2024):

T1: binding of LAG-3 to MHC class II molecules (293T-hLAG-3 cells / Raji cells) (Homo sapiens, UniProt P18627)
T1 construct: expressed in transfected cells; host or cells: 293T cells, transient transfection (Lipofectamine 2000)
T1 sequence (P18627 23-525): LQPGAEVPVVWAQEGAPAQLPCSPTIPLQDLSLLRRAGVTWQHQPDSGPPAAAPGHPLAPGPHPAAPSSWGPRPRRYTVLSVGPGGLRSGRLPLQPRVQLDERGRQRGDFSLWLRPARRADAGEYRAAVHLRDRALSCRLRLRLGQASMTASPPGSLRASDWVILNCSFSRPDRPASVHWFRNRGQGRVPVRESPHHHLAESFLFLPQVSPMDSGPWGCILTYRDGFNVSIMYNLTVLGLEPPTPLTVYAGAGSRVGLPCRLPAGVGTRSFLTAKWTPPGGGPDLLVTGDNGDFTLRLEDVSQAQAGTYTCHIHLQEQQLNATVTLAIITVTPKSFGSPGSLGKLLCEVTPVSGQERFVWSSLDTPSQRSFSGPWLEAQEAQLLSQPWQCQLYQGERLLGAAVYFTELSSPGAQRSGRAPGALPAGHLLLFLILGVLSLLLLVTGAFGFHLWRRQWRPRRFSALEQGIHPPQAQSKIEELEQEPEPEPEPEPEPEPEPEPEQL

T2: human PHA blasts expressing LAG-3 (Homo sapiens, UniProt P18627)
T2 construct: To human PBMCs stimulated with 2 μg/mL of PHA (manufactured by Sigma-Aldrich) for three days; endogenous in cells; host or cells: human PBMCs stimulated with PHA for three days (PHA blasts)
T2 sequence (P18627 23-525): T1 sequence (P18627 23-525)

B1: rLA204: anti-human LAG-3 rat monoclonal antibody; heavy chain variable region SEQ ID No: 2, light chain variable region SEQ ID No: 4 (antibody, listed as Rattus norvegicus, V domains shown)
VH: EVELVESGGGLVQPGRSMKLSCAASGFTFRTYGMAWVRQAPTKGLEWVASISTGGGSTYYRDSVKGRFTISRDNAKSTLYLQMDSLRSEDTATYYCTTDLINYPGIGGFAFWGQGTLVTVSS
VL: NIVMTQSPKSMSISVGDRVTMNCKASQNVYNNIAWYQQKPGKSPKLLIYYASNRYTGVPDRFTGSGSGTDFTLTIHSVQAEDAAFYYCQRLYNSPPTFGGGTKLELKRA
B2: rLA212: anti-human LAG-3 rat monoclonal antibody; heavy chain variable region SEQ ID No: 6, light chain variable region SEQ ID No: 8 (antibody, listed as Rattus norvegicus, V domains shown)
VH: EVQLVESGGGLVQPGRSLKLSCAASGFTYRSYVMAWVRQAPTRGLEWVASISTGGGNTYYRDSVKGRFTISRDNAKNTLYLQMDSLRSEDTATYYCAEDMSNSGYGLFDYWGQGVMVTVSS
VL: NIVMTQSPKSMSISVGDRVTMNCKAGQNVDNNIAWYQKKPGQSPKLLIYYASNRNTGVPDRFTGGGYGTDFTLTINSVQAEDAAFYYCQRISNSPYTFGAGTELELKRA
B3: rLA1264: anti-human LAG-3 rat monoclonal antibody; heavy chain variable region SEQ ID No: 18, light chain variable region SEQ ID No: 20 (antibody, listed as Rattus norvegicus, V domains shown)
VH: EVQLVESGGGLVQPGRSLKLSCAASGFTFSSYYMAWVRQAPTKGLEWVAYISNGGYSTYYRDSVKGRFTISRENAKSTLYLQMDSLRSEDTATYYCTITDHSGYRFTYWGQGTLVTVSS
VL: DIQMTQSPSLLSASVGDRVTLSCKASQSIYNSLAWYQQKLGEAPKLLIYDANSLQTGIPSRFSGSGSGTDFTLTISSLQPEDVATYFCQKYYSGNTFGAGTKLELKRA
B4: rLA225: anti-human LAG-3 rat monoclonal antibody; heavy chain variable region SEQ ID No: 10, light chain variable region SEQ ID No: 12 (antibody, listed as Rattus norvegicus, V domains shown)
VH: EVQLVESGGGLVQPGRSMKLSCVASGFTFSNYYMAWVRQAPTKGLEWVASISTGGGNTYYRDSVKGRFTISRDNAKSTLYLQMDSLRSEDTATYYCARPPYGYNYGWFTYWGQGTLVTVSS
VL: DIQMTQSPASLSASLGETVTIECRASEDIHNGLVWYQQKPGKSPQLLIYNANSMHTGVPSRFSGSGSGTQYSLKINSLQSEDVASYFCQQYYNYPRTFGGGTKLELKRA
B5: rLA869: anti-human LAG-3 rat monoclonal antibody; heavy chain variable region SEQ ID No: 14, light chain variable region SEQ ID No: 16 (antibody, listed as Rattus norvegicus, V domains shown)
VH: EVQLVESGGGLVQPGRSLKLSCAASGFTYRTYVMAWVRQGPTQGLEWVASISTGGVSTYYRDSVKGRFTISRDNAKNTLYLQMDSLRSEDTATYYCAKDMLNGYNSQGLFDYWGQGVMVTVSS
VL: NIVMTQSPKSMSISVGDRVTMNCRASQNVDNTIAWYQQKPGQSPKLLIYFASDRYTGVPDRFTGGGYGTDFTLTINSVQAEDAAFYYCQRIYNSPLTFGSGTKLEIRRA

Legend:
[1] = biological target: T1, binding of LAG-3 to MHC class II molecules (293T-hLAG-3 cells / Raji cells); assay: 293T-hLAG-3/Raji cell adhesion test; type: cell-based; conditions: 10 μg/mL
From the text: In the LAG-3/MHC class II binding test according to Example 2)-3, the binding of the secondary antibody Anti-Human IgG PE conjugate for detecting binding of LAG-3-Fc to Raji cells could be inhibited by steric hindrance caused by binding of the anti-LAG-3 antibody to LAG-3-Fc, and thus the possibility of apparently showing a low fluorescence intensity cannot be completely excluded, despite the antibody not actually directly inhibiting the binding of LAG-3/MHC class II. Therefore, as an evaluation system without using a secondary antibody for detection, the following 293T-hLAG-3/Raji cell adhesion test system was constructed to evaluate the antibody.
Human LAG-3 expression plasmid pcDNA3.1/hLAG-3 was introduced into 293T cells using Lipofectamine 2000 (manufactured by Life Technologies Corp.), and the cells were inoculated onto a BioCoat poly-D-lysine-coated 96-well microplate (manufactured by Becton, Dickinson and Company) and cultured overnight. Meanwhile, Raji cells were labeled in a medium (RPMI1640 containing 10% FBS) with fluorescent dye BCECF-AM (manufactured by DOJINDO LABORATORIES, used at 10 μM) at 37° C. for 1 hour, followed by washing and then suspending in a medium to 1.6×10^6 cells/mL. After the transfection, the medium of the cells (293T-hLAG-3 cells) cultured overnight was removed, and 50 μL/well of a medium and 25 μL/well of an antibody solution were added thereto, followed by pre-incubation at 37° C. for 30 minutes. Thereafter, 25 μL/well of the BCECF-AM labeled Raji cells was added thereto, followed by centrifugation at 900 rpm for 30 seconds and incubation at 37° C. for 1 hour. After the reaction, the well was washed with medium two to three times to remove nonadherent cells, and the cells were lysed in 100 µL/well of a Tris buffer (25 mM, pH 8.0) containing 0.1% NP-40, to measure the fluorescence intensity of the well with a plate reader (ENVISION: manufactured by PerkinElmer Inc). The percentage of inhibition was calculated by the following formula.
Percentage of inhibition (%)=100−(A−B)/(C−B)×100 • A: Fluorescence intensity of each sample well • B: Fluorescence intensity of background
When adding the Raji cells and the antibody, a medium was added thereto. Except for that, the same operation as in the sample well was performed. • C: Fluorescence intensity of maximum binding
When adding the antibody, a medium was added thereto.

[2] = biological target: T2, human PHA blasts expressing LAG-3; assay: Binding activity to activated human T cells (PHA blasts) by flow cytometry; conditions: mean fluorescence intensity
Method: It was further confirmed by flow cytometry that the antibody produced by the hybridomas determined to be positive by the Cell-ELISA in Example 1)-3 binds to PHA (phytohemagglutinin) activated human T cells (PHA blasts), a more physiologically relevant cell type expressing LAG-3. To human PBMCs stimulated with 2 μg/mL of PHA (manufactured by Sigma-Aldrich) for three days, was added a hybridoma culture supernatant for suspension, followed by reaction at 4° C. for 30 minutes. After washing with a FACS buffer (PBS, 0.1% BSA, and 0.1% sodium azide), a secondary antibody such as an Anti-Rat IgG PE conjugate (manufactured by Jackson ImmunoResearch Laboratories, Inc.) diluted 200-fold with a FACS buffer comprising a LIVE/DEAD Fixable Dead Cell Stain Kit-near-IR fluorescent reactive dye (manufactured by Invitrogen Corp.) was added thereto for suspension, followed by standing at 4° C. for 30 minutes. After washing with a FACS buffer, the cells were resuspended in PBS containing 1 to 2% paraformaldehyde, followed by detection using a flow cytometer (CantoII: manufactured by Becton, Dickinson and Company or FC500: manufactured by Beckman Coulter Inc.). The data was analyzed using FlowJo (manufactured by Tree Star Inc). After removal of the LIVE/DEAD Fixable Dead Cell Stain Kit-near-IR fluorescent reactive dye-positive dead cells by gating, a histogram of the fluorescence intensity of the living cells was plotted.
The binding activity of the rat anti-human LAG-3 antibodies rLA204, rLA212, rLA225, rLA869, and rLA1264 purified by the method described in Example 1)-7 to activated human T cells was investigated.

Molecule	inhibitory activity in the 293T-hLAG-3/Raji cell adhesion test [1]	binding to activated human T cells (PHA blasts) [2]
B1	almost no inhibitory activity	bound to PHA blasts prepared as in vitro activated human T cells in a concentration-dependent manner
B2	almost no inhibitory activity	bound to PHA blasts prepared as in vitro activated human T cells in a concentration-dependent manner
B3	almost no inhibitory activity	bound to PHA blasts prepared as in vitro activated human T cells in a concentration-dependent manner
B4	almost no inhibitory activity	bound to PHA blasts prepared as in vitro activated human T cells in a concentration-dependent manner
B5	almost no inhibitory activity	bound to PHA blasts prepared as in vitro activated human T cells in a concentration-dependent manner
